First the molecules themselves.
B1: VHH Z70 mutant 9 (P101S + G115E) (VHH)
VHH: EVQLQASGGVFVQSGGSLRLSCAASGATSTFDGMGWFRQAPGKEREFVSAISYEQGSYTYYADSVKGRFTISRDNSKNMVYLQMNSLRAEDTATYYCASAYEGDLYAFDSYGEQGTQVTVSS
B2: VHH Z70 mutant 14 (VHH)
VHH: B1 VHH with T30I, E54G, S99P
B3: VHH Z70 mutant 12 (S23C + G115E) (VHH)
VHH: B1 VHH with S21C, S99P
B4: VHH Z70 mutant 20 (R47K + G115E) (VHH)
VHH: B1 VHH with R45K, S99P
B5: VHH Z70 mutant 5 (T96S) (VHH)
VHH: B1 VHH with T94S, S99P, E113G
B6: VHH Z70 mutant 3 (R47K) (VHH)
VHH: B1 VHH with R45K, S99P, E113G
B7: TAMRA-labelled VHH Z70 mutant 20 (double mutation R47K + G115E) with a terminal cysteine (VHH)
VHH: B1 VHH with R45K, S99P
B8: TAMRA-labelled VHH Z70 mutant 3 (R47K) with a terminal cysteine (VHH)
VHH: B1 VHH with R45K, S99P, E113G
B9: VHH Z70 mutant 3 (R47K), Gal4 activation domain fusion prey (VHH)
VHH: B1 VHH with R45K, S99P, E113G
B10: VHH Z70 mutant 9 (P101S + G115E), Gal4 activation domain fusion prey (VHH)
VHH: B1 VHH
B11: VHH Z70 mutant 5 (T96S), Gal4 activation domain fusion prey (VHH)
VHH: B1 VHH with T94S, S99P, E113G
B12: VHH Z70 mutant 15 (R90G + P101S + G114E), Gal4 activation domain fusion prey (VHH)
VHH: B1 VHH with R88G, G112E, E113G
B13: VHH Z70 mutant 14, Gal4 activation domain fusion prey (VHH)
VHH: B1 VHH with T30I, E54G, S99P
B14: VHH Z70 mutant 12 (S23C + G115E), Gal4 activation domain fusion prey (VHH)
VHH: B1 VHH with S21C, S99P
B15: VHH Z70 mutant 1 (G115E) (VHH)
VHH: B1 VHH with S99P
B16: VHH Z70 mutant 15 (R90G + P101S + G114E) (VHH)
VHH: B1 VHH with R88G, G112E, E113G

Consider 16 molecules from paper doi:10.1101/2023.07.18.549252 (bioRxiv, 2023).

Where a chain is given by its changes, count along the chain named. Numbers in names are those of the source.

The first test deals with Tau 2N4R (recombinant; 15N-labelled for NMR) (Homo sapiens, UniProt P10636-8). As to the kind of experiment: NMR titration.
On to B1, for which the binding result is “binds”.
The same measure, in the same setting: with B2 the entry was “binds”; with B3, “binds”.
In the case of B4, the binding result is “binds”.
Same read-out and setting: with B5 the entry was “binds”.
Consider B6, for which the binding result is “binds”.

For the next test, the target named is Tau (on the Western blot membrane) (Homo sapiens, UniProt P10636). In words: far-Western, overlay or dot blot.
As for B7, the binding result was “binds”.
The same measure, in the same setting: then B8, with “binds”.

The target of another test is Tau-LexA (Tau variant 0N4R isoform with a C-terminal LexA fusion) (Homo sapiens, UniProt P10636-6). As to the kind of experiment: two-hybrid.
Consider B9, for which the binding result was “binds”.
Still for that read-out and setting: then B10, with “binds”; and B11, with “binds”.
Still for that read-out and setting: then B12, with “binds”; and B13, with “binds”; and B14, with “binds”.

In the next test the target is Biotinylated Tau 2N4R (Homo sapiens, UniProt P10636-8, biotin (NHS-biotin conjugates, 5 molar excess; sites not stated)). As to the kind of experiment: SPR. In general terms: SPR reads the build-up and loss of mass on a sensor chip optically.
Turning to B15, the Kd amounted to 23 nM.
On to B1, for which the binding result was “binds”.
On the same count and under the same terms, with B2 the entry was “binds”.
Still for that read-out and setting: then B3, with “binds”.
Turning to B4, the binding result was “binds”.
Same read-out and setting: then B5, with “binds”.
The same measure, in the same setting: then B6, with “binds”.
The same measure, in the same setting: with B16 the entry was “binds”.

As usually defined, the Kd is the equilibrium constant for the complex coming apart. A low value points to a tighter complex.
